Measured values reported in US6974798B2, “Treatment of balance impairments” (Genentech, Inc., priority 1995, dated 2005).
Numbering of substitutions follows the chain as printed. In names and notes the source's numbering stands. Entries after “also recorded” stand apart in the source; their conditions may differ.

Assays:
[1] = cited from earlier work
[2] = test system: vestibular ganglion neurons (VGNs); experiment: VGN survival in dissociated cell culture, serum-free medium, 2 days; assay type: cell-based, rat; conditions: for survival-promoting effect on VGNs: 10 ng/ml added at plating
Method: (§1) The effects of trkB or trkC agonists to enhance neuronal survival was determined using VGNs in cell culture. VGN cell culture was prepared as follows. Vestibular ganglia were dissected from postnatal day 5 (P5) Wistar rats and were incubated in a mixture of 0.125% trypsin and 0.125% collagenase for 25 min at 37° C. The enzyme was inactivated with a mixture of 0.005% soybean trypsin inhibitor (Sigma) and 0.005% DNase (Worthington) before trituration with 0.05% DNase in Eagle's Basal Medium (“BME”). After the undissociated tissues were separated by filtering with a Nylon meshwork (33 μm in pore size), the dissociated cells were preplated on a 35 mm untreated tissue culture dish for 25 min to enrich the neuronal population. Under these experimental procedures, about 3-5% of the cell population were vestibular ganglion neurons (VGNs) as determined by immunocytochemistry with a monoclonal antibody (N52; Boehringer) against neurofilament (200 kd). The cell suspension was finally plated on polylysine (500 μg/ml)laminin (20 μg/ml) coated 16-well LabTek slides in 200 μl of serum-free medium (BME plus serum-free supplement (Sigma I-1884), 1% BSA, 2 mM glutamine, and 5 mg/ml glucose) containing no antibiotics. Cells were plated at a density of 100,000/well.
All human recombinant neurotrophins (obtained from Genentech, Inc.) were added to the cultures at the time of plating.
(§2) Cell counts and data analysis were performed as follows. After 2 days in culture, viable VGNs were identified by labeling with the neurofilament monoclonal antibody N52 and counted using a grid ocular reticule covering an area of 1 mm^2 under a Zeiss Axiophot microscope. For each culture, about 10 randomly selected fields were counted. In these experiments, cell counts were performed in the same way for control cultures. Data were collected from triplet cultures for each of the experimental groups. Data were then normalized as a percentage of the viable VGNs in the control cultures in each of the experiments.
The effect of neurotrophins on cell survival was determined on VGNs which were dissociated from postnatal day 5 (P5) rat vestibular ganglia and plated in defined serum-free medium. Neurofilament protein immunocytochemistry using bright field microscopy was performed in the VGN cultures in serum-free medium in the absence or presence of 10 ng/ml of NT-4/5. In control cultures in serum-free medium without neurotrophins, about 35% of VGNs survived after 2 days. […] The survival-promoting effects of NT-4/5 on cultured VGNs were dose-dependent (FIG. 1).

[3] = test system: vestibular ganglion neurons (VGNs); experiment: Protection of cultured VGNs from cisplatin neurotoxicity; assay type: cell-based, rat; conditions: for protective effect against cisplatin neurotoxicity: 1, 2 or 4 μg/ml cisplatin, 10 ng/ml factor, 2 days
Method: as §1, §2
(§3) The ability of trkB or trkC agonists to protect neurons from ototoxicity was determined using VGNs in cell culture. […] All human recombinant neurotrophins (Genentech, Inc.) were added to the cultures at the time of plating. To block the effects of the neurotrophins, 1 μg/ml of trkB-IgG or trkC-IgG (kindly provided by Dr. Dave Shelton), specific antagonists for NT-4/5 (and BDNF) or NT-3, respectively (Shelton et al., 1995), was added to some of the experimental cultures at the same time when neurotrophins were added. […] In other experiments, epidermal growth factor (EGF), basic fibroblast growth factor (βFGF) and insulin-like growth factor-1 (IGF-1) were added to the culture at the time of plating at a concentration of 10 ng/ml. […] In these experiments, cell counts were performed in the same way for control cultures.

[4] = test system: vestibular ganglion neurons (VGNs); experiment: Protection of cultured VGNs against gentamicin neurotoxicity; assay type: cell-based, rat; conditions: FIG. 5; for protective effect against gentamicin neurotoxicity: 1, 2 or 3 mg/ml gentamicin, 10 ng/ml factor, 2 days
Method: as §1, §2, §3

[5] = molecular target: trkB receptor (Homo sapiens, UniProt Q16620); conditions: naturally occurring NGF versus BDNF; cited from earlier work
trkB receptor, sequence (Q16620 32-822): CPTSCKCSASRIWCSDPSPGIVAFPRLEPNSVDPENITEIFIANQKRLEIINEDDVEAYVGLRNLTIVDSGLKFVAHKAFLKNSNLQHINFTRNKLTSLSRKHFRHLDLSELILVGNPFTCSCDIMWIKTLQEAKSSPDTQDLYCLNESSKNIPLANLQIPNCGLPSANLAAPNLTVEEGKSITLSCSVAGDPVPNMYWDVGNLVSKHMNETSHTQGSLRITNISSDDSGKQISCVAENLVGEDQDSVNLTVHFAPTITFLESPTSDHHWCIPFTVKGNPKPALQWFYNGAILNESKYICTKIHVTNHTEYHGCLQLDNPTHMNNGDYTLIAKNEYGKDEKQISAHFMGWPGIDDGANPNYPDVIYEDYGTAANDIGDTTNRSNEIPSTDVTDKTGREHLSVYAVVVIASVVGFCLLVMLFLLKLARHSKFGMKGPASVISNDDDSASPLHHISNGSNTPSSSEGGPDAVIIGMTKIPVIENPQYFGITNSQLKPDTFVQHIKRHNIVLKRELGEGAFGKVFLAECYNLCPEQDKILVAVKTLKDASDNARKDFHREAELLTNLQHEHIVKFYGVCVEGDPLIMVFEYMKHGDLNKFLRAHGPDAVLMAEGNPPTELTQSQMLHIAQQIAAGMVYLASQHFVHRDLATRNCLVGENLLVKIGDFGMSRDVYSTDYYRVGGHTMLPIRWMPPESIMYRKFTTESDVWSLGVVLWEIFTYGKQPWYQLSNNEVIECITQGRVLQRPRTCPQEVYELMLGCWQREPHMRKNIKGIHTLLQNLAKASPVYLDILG

[6] = molecular target: trkC receptor (Homo sapiens, UniProt Q16288); conditions: cited from earlier work; for trkC binding of NT-3 mutants: relative to NT-3
trkC receptor, sequence (Q16288 32-839): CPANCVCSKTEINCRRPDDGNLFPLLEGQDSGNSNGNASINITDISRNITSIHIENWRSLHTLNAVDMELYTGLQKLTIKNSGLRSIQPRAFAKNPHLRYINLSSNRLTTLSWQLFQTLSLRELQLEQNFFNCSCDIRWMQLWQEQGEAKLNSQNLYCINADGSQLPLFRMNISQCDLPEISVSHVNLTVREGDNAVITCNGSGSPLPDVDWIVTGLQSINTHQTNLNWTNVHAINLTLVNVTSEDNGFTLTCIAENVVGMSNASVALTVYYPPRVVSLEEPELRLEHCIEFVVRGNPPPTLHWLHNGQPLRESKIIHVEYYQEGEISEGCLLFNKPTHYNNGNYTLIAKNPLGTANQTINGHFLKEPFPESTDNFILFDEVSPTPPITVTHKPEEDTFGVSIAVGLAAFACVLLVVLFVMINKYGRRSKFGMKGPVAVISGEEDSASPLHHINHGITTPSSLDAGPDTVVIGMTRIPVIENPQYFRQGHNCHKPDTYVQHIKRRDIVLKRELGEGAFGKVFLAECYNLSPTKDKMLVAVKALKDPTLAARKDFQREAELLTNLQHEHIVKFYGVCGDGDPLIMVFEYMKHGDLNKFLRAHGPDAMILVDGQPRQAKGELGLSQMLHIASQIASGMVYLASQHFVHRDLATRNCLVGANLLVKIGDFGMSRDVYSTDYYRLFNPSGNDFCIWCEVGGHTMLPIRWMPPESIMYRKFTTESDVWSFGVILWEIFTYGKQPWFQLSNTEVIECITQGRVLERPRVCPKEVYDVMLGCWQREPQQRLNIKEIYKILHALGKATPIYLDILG

[7] = test system: vestibular ganglion neurons (VGNs); experiment: Ototoxin-induced cell death of VGNs in culture; assay type: cell-based, rat
Method: The ability of trkB or trkC agonists to protect neurons from ototoxicity was determined using VGNs in cell culture. […] All human recombinant neurotrophins (Genentech, Inc.) were added to the cultures at the time of plating. […]

[8] = test system: hair cells; conditions: Warchol et al., 1993, Lefebvre et al.; cited from earlier work
[9] = test system: vestibular ganglion neurons (VGNs); experiment: Blocking of neurotrophin survival-promoting effects by trkB-IgG / trkC-IgG in VGN culture; assay type: cell-based, rat; conditions: for effect on VGN cultures by themselves (without neurotrophin): 1 μg/ml, alone; for effect of trkB-IgG and trkC-IgG together on the effects of NT-4/5 and NT-3: both fusion proteins together
Method: as §1, §2
TrkB-IgG and trkC-IgG have been previously reported to be specific antagonists for NT-4/5 (or BDNF) and NT-3, respectively (Shelton et al., 1995). To confirm that the survival-promoting effects of NT-4/5, BDNF and NT-3 were specific, trkB-IgG or trkC-IgG fusion protein was added to the culture along with NT-4/5, BDNF or NT-3. All human recombinant neurotrophins (Genentech, Inc.) were added to the cultures at the time of plating. To block the effects of the neurotrophins, 1 μg/ml of trkB-IgG or trkC-IgG (kindly provided by Dr. Dave Shelton), specific antagonists for NT-4/5 (and BDNF) or NT-3, respectively (Shelton et al., 1995), was added to some of the experimental cultures at the same time when neurotrophins were added.

[10] = culture containing cisplatin, FIG. 4

[H]/N=C(/N)N[C@H]1[C@H](O)[C@@H](O)[C@H](O[C@@H]2O[C@@H](C)[C@](O)(C=O)[C@H]2O[C@@H]2O[C@@H](CO)[C@H](O)[C@@H](O)[C@@H]2NC)[C@@H](N/C(N)=N\[H])[C@@H]1O [streptomycin]
incidence of vestibular impairment ([1]; 1 gram per day): 25%
patients displaying some vestibular impairment ([1]; 2 grams daily for 60 to 120 days): ~75%

EGF: epidermal growth factor
survival-promoting effect on VGNs ([2]; 2 days, FIG. 2): not affected; also recorded: did not produce significant effects

IGF-1: insulin-like growth factor-1
survival-promoting effect on VGNs ([2]; 2 days, FIG. 2): not affected; also recorded: did not produce significant effects

NGF: human recombinant nerve growth factor, ligand of trkA
survival-promoting effect on VGNs ([2]; 2 days, FIG. 2): did not show any detectable effect; also recorded: did not produce significant effects
protective effect against cisplatin neurotoxicity ([3]; FIG. 4): no protective effects
protective effect against gentamicin neurotoxicity [4]: showed no effect
KD at trkB relative to BDNF (fold lower) [5]: 500-1000 fold
KD at trkC relative to NT-3 (fold lower) ([6]; naturally occurring NGF versus NT-3): 500-1000 fold

R31A: NT-3 mutant with mutation at position R31 to alanine
trkC binding of NT-3 mutants [6]: increased trkC binding

gentamicin
VGN death ([7]; 3 mgiml of gentamicin): a majority of VGNs died
inhibition of VGN survival by the ototoxin ([7]; added at plating at various concentrations, FIGS. 4 and 5): dose-dependent inhibition of VGN survival
concentrations at which induced VGN cell death was observed ([7]; present experiments): 1000 to 3000 µg/mL
concentrations needed to destroy hair cells [8]: 500 to 1000 µg/mL

trkB-IgG: trkB-IgG fusion protein, specific antagonist for NT-4/5 and BDNF (Shelton et al., 1995)
inhibition of the survival-promoting effect of BDNF ([9]; 1 μg/ml antagonist, 10 ng/ml BDNF, FIG. 3): completely abolished; also recorded: inhibit
inhibition of the survival-promoting effect of NT-4/5 ([9]; 1 μg/ml antagonist, 10 ng/ml NT-4/5, FIG. 3): completely abolished; also recorded: inhibit
effect on VGN cultures by themselves (without neurotrophin) [9]: did not show detectable effects
effect of trkB-IgG and trkC-IgG together on the effects of NT-4/5 and NT-3 [9]: blocked

trkC-IgG: trkC-IgG fusion protein, specific antagonist for NT-3 (Shelton et al., 1995)
inhibition of the survival-promoting effect of NT-3 ([9]; 1 μg/ml antagonist, 10 ng/ml NT-3, FIG. 3): inhibited the activity of NT-3; also recorded: inhibit
effect on VGN cultures by themselves (without neurotrophin) [9]: did not show detectable effects
effect of trkB-IgG and trkC-IgG together on the effects of NT-4/5 and NT-3 [9]: blocked

βFGF: basic fibroblast growth factor
survival-promoting effect on VGNs ([2]; 2 days, FIG. 2): not affected; also recorded: did not produce significant effects

B1: NT-4/5: human recombinant neurotrophin-4/5 (Genentech, Inc.), ligand of trkB (protein)
chain: GVSETAPASRRGELAVCDAVSGWVTDRRTAVDLRGREVEVLGEVPAAGGSPLRQYFFETRCKADNAEEGGPGAGGGGCRGVDRRHWVSECKAKQSYVRALTAHAQGRVGWRWIRIDTACVCTLLSRTGRA
survival-promoting effect on VGNs ([2]; 2 days, FIG. 2): very significant survival promoting effects
additive/synergistic effect on VGN survival, NT-4/5 combined with BDNF ([2]; 10 ng/ml, FIG. 2): no synergistic effects were observed
additive/synergistic effect on VGN survival, NT-4/5 combined with NT-3 ([2]; 10 ng/ml, FIG. 2): no synergistic effects were observed
survival-promoting effect on VGNs over the dose range ([2]; NT-4/5 at different concentrations, 2 days, FIG. 1): dose-dependent; also recorded: very significant survival-promoting effects
concentration of maximal survival-promoting effect ([2]; doses from 0.1 to 50 ng/ml examined, FIG. 1): 10 ng/mL
number of surviving VGNs relative to cisplatin alone and to control ([3]; 1 μg/ml or 2 μg/ml cisplatin, 10 ng/ml neurotrophin): higher than the control culture without cisplatin
VGN survival ([3]; 4 μg/ml cisplatin, 10 ng/ml neurotrophin, FIG. 4): about 60 % of the survival levels of control cultures in the absence of cisplatin
protective effect against cisplatin neurotoxicity ([3]; FIG. 4): significantly ameliorated the toxic effects of cisplatin; also recorded: very significant protecting effects at all three doses
additive effect, NT-4/5 combined with BDNF, cisplatin culture [3, 10]: no additive effects were observed
additive effect, NT-4/5 combined with NT-3, cisplatin culture [3, 10]: no additive effects were observed
protective effect against gentamicin neurotoxicity [4]: very significant protective effects at all three doses of gentamicin
additive effect, NT-4/5 combined with BDNF, gentamicin culture ([4]; culture containing gentamicin): no additive effects were observed
additive effect, NT-4/5 combined with NT-3, gentamicin culture ([4]; culture containing gentamicin): no additive effects were observed

B2: E92A: NT-3 mutant with mutation at position E92 to alanine (protein, UniProt P20783 139-257, looked up, variant E92A)
Neurotrophin-3: YAEHKSHRGEYSVCDSESLWVTDKSSAIDIRGHQVTVLGEIKTGNSPVKQYFYETRCKEARPVKNGCRGIDDKHWNSQCKTSQTYVRALTSANNKLVGWRWIRIDTSCVCALSRKIGRT
trkC binding of NT-3 mutants [6]: increased trkC binding

B3: NT-3: human recombinant neurotrophin-3, ligand of trkC (protein)
chain: B2 Neurotrophin-3 with A92E, C110S
survival-promoting effect on VGNs ([2]; 2 days, FIG. 2): significant effect (p<0.01) but was less potent than NT-4/5 and BDNF; also recorded: very significant survival promoting effects
protective effect against cisplatin neurotoxicity ([3]; FIG. 4): Significant protective, but less potent effects; also recorded: very significant protecting effects at all three doses
protective effect against gentamicin neurotoxicity [4]: significantly protective effect; also recorded: very significant protective effects at all three doses of gentamicin

B4: BDNF: human recombinant brain-derived neurotrophic factor, ligand of trkB (protein)
chain: HSDPARRGELSVCDSISEWVTAADKKTAVDMSGGTVTVLEKVPVSKGQLKQYFYETKCNPMGYTKEGCRGIDKRHWNSQCRTTQSYVRALTMDSKKRIGWRFIRIDTSCVTLTIKRGR
survival-promoting effect on VGNs ([2]; 2 days, FIG. 2): equivalent to NT-4/5; also recorded: very significant survival promoting effects
increase in the number of surviving VGNs ([2]; P5 rat VGNs, 2 days in serum-free medium, versus control culture without neurotrophin): 2 fold
protective effect against cisplatin neurotoxicity ([3]; FIG. 4): equivalent effectiveness; also recorded: very significant protecting effects at all three doses
protective effect against gentamicin neurotoxicity [4]: an effect equivalent to NT-4/5; also recorded: very significant protective effects at all three doses of gentamicin
